The labels stand for the following.
T1: Shc adaptor protein (66, 52 and 46 kDa isoforms) (human, UniProt P29353 1-583, limits assumed)
T1 construct: Full-length endogenous protein in cell lysates; three isoforms detected together; also called Shc adapter protein
T1 sequence (looked up): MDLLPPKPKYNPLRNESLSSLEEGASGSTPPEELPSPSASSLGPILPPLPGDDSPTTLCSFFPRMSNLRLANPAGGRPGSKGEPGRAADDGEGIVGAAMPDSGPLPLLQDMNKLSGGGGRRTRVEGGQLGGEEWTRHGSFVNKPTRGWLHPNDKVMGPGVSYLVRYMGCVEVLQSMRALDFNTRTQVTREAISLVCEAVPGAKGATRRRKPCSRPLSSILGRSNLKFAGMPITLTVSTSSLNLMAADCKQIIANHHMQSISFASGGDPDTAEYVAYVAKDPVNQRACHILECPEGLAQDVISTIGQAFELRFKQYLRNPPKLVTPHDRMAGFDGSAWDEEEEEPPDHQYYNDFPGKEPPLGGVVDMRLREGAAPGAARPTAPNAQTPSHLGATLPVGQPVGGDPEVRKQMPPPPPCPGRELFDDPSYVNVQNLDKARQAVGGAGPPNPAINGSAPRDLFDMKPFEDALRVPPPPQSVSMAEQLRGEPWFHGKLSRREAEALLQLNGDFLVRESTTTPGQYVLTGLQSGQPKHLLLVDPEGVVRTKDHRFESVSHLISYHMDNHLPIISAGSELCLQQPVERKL

B1: Y381A hPar1 (receptor, human, UniProt P25116 42-425, looked up)
chain: SFLLRNPNDKYEPFWEDEEKNESGLTEYRLVSINKSSPLQKQLPAFISEDASGYLTSSWLTLFVPSVYTGVFVVSLPLNIMAIVVFILKMKVKKPAVVYMLHLATADVLFVSVLPFKISYYFSGSDWQFGSELCRFVTAAFYCNMYASILLMTVISIDRFLAVVYPMQSLSWRTLGRASFTCLAIWALAIAGVVPLLLKEQTIQVPGLNITTCHDVLNETLLEGYYAYYFSAFSAVFFFVPLIISTVCYVSIIRCLSSSAVANRSKKSRALFLSAAVFCIFIICFGPTNVLLIAHYSFLSHTSTTEAAYFAYLLCVCVSSISCCIDPLIYYYASSECQRAVYSILCCKESSDPSSYNSSGQLMASKMDTCSSNLNNSIYKKLLT
notes: whole, on cells; also called hPar1-Y381A
B2: Y383A hPar1 (receptor, human, UniProt P25116 42-425, looked up)
chain: SFLLRNPNDKYEPFWEDEEKNESGLTEYRLVSINKSSPLQKQLPAFISEDASGYLTSSWLTLFVPSVYTGVFVVSLPLNIMAIVVFILKMKVKKPAVVYMLHLATADVLFVSVLPFKISYYFSGSDWQFGSELCRFVTAAFYCNMYASILLMTVISIDRFLAVVYPMQSLSWRTLGRASFTCLAIWALAIAGVVPLLLKEQTIQVPGLNITTCHDVLNETLLEGYYAYYFSAFSAVFFFVPLIISTVCYVSIIRCLSSSAVANRSKKSRALFLSAAVFCIFIICFGPTNVLLIAHYSFLSHTSTTEAAYFAYLLCVCVSSISCCIDPLIYYYASSECQRYVASILCCKESSDPSSYNSSGQLMASKMDTCSSNLNNSIYKKLLT
notes: whole, on cells
B3: Y381A & Y383A hPar1 double mutant (receptor, human, UniProt P25116 42-425, looked up)
chain: SFLLRNPNDKYEPFWEDEEKNESGLTEYRLVSINKSSPLQKQLPAFISEDASGYLTSSWLTLFVPSVYTGVFVVSLPLNIMAIVVFILKMKVKKPAVVYMLHLATADVLFVSVLPFKISYYFSGSDWQFGSELCRFVTAAFYCNMYASILLMTVISIDRFLAVVYPMQSLSWRTLGRASFTCLAIWALAIAGVVPLLLKEQTIQVPGLNITTCHDVLNETLLEGYYAYYFSAFSAVFFFVPLIISTVCYVSIIRCLSSSAVANRSKKSRALFLSAAVFCIFIICFGPTNVLLIAHYSFLSHTSTTEAAYFAYLLCVCVSSISCCIDPLIYYYASSECQRAVASILCCKESSDPSSYNSSGQLMASKMDTCSSNLNNSIYKKLLT
notes: whole, on cells; also called Y381A&383A hPar1

In this assay the target is T1, Shc adaptor protein (66, 52 and 46 kDa …). The assay is described as follows: association of Shc with PAR1 Y/A mutants (method not detailed).
Regarding B1, the binding result is listed as “binds”.
Consider B2, for which the binding result is recorded as “binds”.
The result for B3 reads “binds”.

These data come from patent US20130331333A1 (HADASIT MEDICAL RESEARCH SERVICES AND DEVELOPMENT, published 2013).
